Legend:
[1] = target: recombinant C-terminal polyhistidine-tagged human (extracellular) CD89 (Sino Biological) (human) (UniProt P24071); assay: ELISA, antibody before serum IgA on coated rhuCD89; IgA detected
[2] = target: membrane-bound full-length human CD89 on HEK293F cells (human) (UniProt P24071); assay: FACS on HEK293F-huCD89
[3] = target: membrane-bound full-length human CD89 on HEK293F cells (human) (UniProt P24071); assay: FACS, antibody before heat-aggregated serum IgA on HEK293F-huCD89; IgA detected
[4] = target: membrane-bound full-length human CD89 on HEK293F cells (human) (UniProt P24071); assay: FACS, antibody before non-aggregated serum IgA on HEK293F-huCD89; IgA detected
[5] = target: membrane-bound full-length human CD89 on HEK293F cells (human) (UniProt P24071); assay: FACS, antibody before serum IgA on HEK293F-huCD89; IgA detected
[6] = target: membrane-bound full-length human CD89 on HEK293F cells (human) (UniProt P24071); assay: FACS, unlabelled antibody before MIP8a-PE on HEK293F-huCD89
[7] = target: membrane-bound full-length human CD89 on HEK293F cells (human) (UniProt P24071); assay: FACS, antibody before non-aggregated serum IgA on HEK293F-huCD89; IgA detected; remark: listed apart in the source
[8] = target: membrane-bound full-length human CD89 on HEK293F cells (human) (UniProt P24071); assay: FACS HEK293F-huCD89, 10 ug/mL; competitor PE-A59
[9] = target: membrane-bound full-length human CD89 on HEK293F cells (human) (UniProt P24071); assay: FACS HEK293F-huCD89, 10 ug/mL; competitor PE-A3
[10] = target: membrane-bound full-length human CD89 on HEK293F cells (human) (UniProt P24071); assay: FACS HEK293F-huCD89, 10 ug/mL; competitor PE-MIP8a
[11] = target: membrane-bound full-length human CD89 on HEK293F cells (human) (UniProt P24071); assay: FACS, antibody before heat-aggregated serum IgA on HEK293F-huCD89; IgA detected; remark: listed apart in the source
[12] = target: recombinant C-terminal polyhistidine-tagged human (extracellular) CD89 (Sino Biological) (human) (UniProt P24071); assay: ELISA on coated rhuCD89
[13] = target: membrane-bound full-length human CD89 on HEK293F cells (human) (UniProt P24071); assay: FACS, antibody before secretory IgA on HEK293F-huCD89; IgA detected
[14] = target: membrane-bound full-length human CD89 on HEK293F cells (human) (UniProt P24071); assay: FACS, unlabelled antibody before A3-PE on HEK293F-huCD89
[15] = target: membrane human CD89 on ex vivo primary human neutrophilic granulocytes or monocytic U937 cells (human) (UniProt P24071)
[16] = target: membrane-bound full-length human CD89 on HEK293F cells (human) (UniProt P24071); assay: FACS, unlabelled antibody before A59-PE on HEK293F-huCD89
[17] = target: membrane-bound full-length human CD89 on HEK293F cells (human) (UniProt P24071); assay: FACS HEK293F-huCD89, titrated Ab; non-aggregated serum IgA
[18] = target: membrane-bound full-length human CD89 on HEK293F cells (human) (UniProt P24071); assay: FACS HEK293F-huCD89, 10 ug/mL; heat-aggregated serum IgA (similar with non-aggregated)
[19] = target: membrane-bound full-length human CD89 on HEK293F cells (human) (UniProt P24071); assay: FACS HEK293F-huCD89; heat-aggregated serum IgA
[20] = target: membrane-bound full-length human CD89 on HEK293F cells (human) (UniProt P24071); assay: FACS HEK293F-huCD89, titrated Ab; heat-aggregated serum IgA
[21] = target: membrane-bound full-length human CD89 on HEK293F cells (human) (UniProt P24071); assay: FACS HEK293F-huCD89; non-aggregated serum IgA

| IC50 (read off the curve) [3] [µg/mL] | IC50 (read off the curve) [4] [µg/mL] | IC50 (read off the curve) [7] [µg/mL] | % blocking of PE-A59 binding [8] [%] | % blocking of PE-A3 binding [9] [%] | % blocking of PE-MIP8a binding [10] [%] | IC50 (read off the curve) [11] [µg/mL] | IC50 (read off the curve) [14] [µg/mL] | maximum inhibition of IgA binding [17] [%] | % blocking of IgA binding [18] [%] | maximum inhibition of IgA binding [19] [%] | maximum inhibition of IgA binding [20] [%] | maximum inhibition of IgA binding [21] [%] | Substance | also measured |
| --- | --- | --- | --- | --- | --- | --- | --- | --- | --- | --- | --- | --- | --- | --- |
| 0.2 | 0.2 | 0.7 | 50 | 55 | > 90 | 0.7 | 0.2 |  |  |  |  |  | mouse anti-human CD89 antibody clone MIP8a (BioRad) | IC50 (read off the curve) [1]: 0.07 µg/mL; EC50 (read off the curve) [2]: 0.2 µg/mL; IC50 (read off the curve) [5]: 0.2 µg/mL; IC50 (read off the curve) [6]: 0.3 µg/mL; EC50 (read off the curve) [12]: 0.02 µg/mL; IC50 (read off the curve) [13]: 0.4 µg/mL; IC50 (read off the bars), binding of granulocytes to plate-bound serum IgA [Donor 3] [15]: 0.6 µg/mL |
|  |  | 1 | > 90 | > 90 | < 25 | 1 |  | 60 | 60 | 60 | 60 | 60 | mouse anti-human CD89 antibody clone A59 (BD Biosciences) | IC50 (read off the curve) [16]: 0.6 µg/mL |
| 0.4 | 0.4 | 0.8 | > 90 | > 90 | < 25 | 0.7 | 0.4 | 60 | 60 | 60 | 60 | 60 | mouse anti-human CD89 antibody clone A3 (Santa Cruz Biotechnology) |  |

Reference: patent US20230242646A1
